Measured values as given in publication doi:10.1101/2024.02.14.580117.
Where two headings read alike, the source gives them in different places.

B1: miR-34a guide / PNUTS target (dsRNA)
RNA 1: UGGCAGUGUCUUAGCUGGUUGU
RNA 2: AAAGUCACACUACAUGCACUGCCU
modifications: 5' phosphate on guide
B2: miR-34a guide / DLL1 target (dsRNA)
RNA 1: UGGCAGUGUCUUAGCUGGUUGU
RNA 2: CCGGCCGCCUGCGGCACUGCCU
modifications: 5' phosphate on guide
B3: miR-34a guide / NOTCH2 target (dsRNA)
RNA 1: UGGCAGUGUCUUAGCUGGUUGU
RNA 2: UCAGUGAUGAGGAGGACAACACUGCCU
modifications: 5' phosphate on guide
B4: miR-34a guide / PERFECT target (dsRNA)
RNA 1: UGGCAGUGUCUUAGCUGGUUGU
RNA 2: ACAACCAGCUAAGACACUGCCA
modifications: 5' phosphate on guide
B5: miR-34a guide / SIRT1 target (dsRNA)
RNA 1: UGGCAGUGUCUUAGCUGGUUGU
RNA 2: ACACCCAGCUAGGACCAUUACUGCCA
modifications: 5' phosphate on guide
B6: miR-34a guide / CDK6 target (dsRNA)
RNA 1: UGGCAGUGUCUUAGCUGGUUGU
RNA 2: UACUUUCUGCCACACACUGCCU
modifications: 5' phosphate on guide
B7: miR-34a guide / MTA2 target (dsRNA)
RNA 1: UGGCAGUGUCUUAGCUGGUUGU
RNA 2: GGUACCUGGUUGGGGGAGGGGGGCGUGCACUGCCA
modifications: 5' phosphate on guide
B8: miR-34a guide / WNT1 target (dsRNA)
RNA 1: UGGCAGUGUCUUAGCUGGUUGU
RNA 2: GGAGACCCCUUGUUGCACUGCCC
modifications: 5' phosphate on guide
B9: miR-34a guide / BCL2 target (dsRNA)
RNA 1: UGGCAGUGUCUUAGCUGGUUGU
RNA 2: UCGAAUCAGCUAUUUACUGCCA
modifications: 5' phosphate on guide
B10: miR-34a guide / SCRseed target (dsRNA)
RNA 1: UGGCAGUGUCUUAGCUGGUUGU
RNA 2: ACAACCAGCUAUCACACACGGA
modifications: 5' phosphate on guide
B11: miR-34a guide / HNF4a target (dsRNA)
RNA 1: UGGCAGUGUCUUAGCUGGUUGU
RNA 2: AGGGCCACAUCCCACUGCCA
modifications: 5' phosphate on guide
B12: miR-34a guide / NOTCH1 target (dsRNA)
RNA 1: UGGCAGUGUCUUAGCUGGUUGU
RNA 2: ACUUUUAUUUUACACAGAAACACUGCCU
modifications: 5' phosphate on guide

Key:
Test in all cases: EMSA
[1] = biological target: T1, Argonaute 2 (AGO2), loaded with miR-34a (Homo sapiens, UniProt Q9UKV8 1-859)
[2] = biological target: T1, Argonaute 2 (AGO2), loaded with miR-34a; remark: listed apart in the source
[3] = biological target: T1, Argonaute 2 (AGO2), loaded with miR-34a; remark: listed apart in the source
[4] = biological target: T1, Argonaute 2 (AGO2), loaded with miR-34a; remark: listed apart in the source
[5] = biological target: T1, Argonaute 2 (AGO2), loaded with miR-34a; remark: listed apart in the source

T1 sequence (Q9UKV8 whole entry): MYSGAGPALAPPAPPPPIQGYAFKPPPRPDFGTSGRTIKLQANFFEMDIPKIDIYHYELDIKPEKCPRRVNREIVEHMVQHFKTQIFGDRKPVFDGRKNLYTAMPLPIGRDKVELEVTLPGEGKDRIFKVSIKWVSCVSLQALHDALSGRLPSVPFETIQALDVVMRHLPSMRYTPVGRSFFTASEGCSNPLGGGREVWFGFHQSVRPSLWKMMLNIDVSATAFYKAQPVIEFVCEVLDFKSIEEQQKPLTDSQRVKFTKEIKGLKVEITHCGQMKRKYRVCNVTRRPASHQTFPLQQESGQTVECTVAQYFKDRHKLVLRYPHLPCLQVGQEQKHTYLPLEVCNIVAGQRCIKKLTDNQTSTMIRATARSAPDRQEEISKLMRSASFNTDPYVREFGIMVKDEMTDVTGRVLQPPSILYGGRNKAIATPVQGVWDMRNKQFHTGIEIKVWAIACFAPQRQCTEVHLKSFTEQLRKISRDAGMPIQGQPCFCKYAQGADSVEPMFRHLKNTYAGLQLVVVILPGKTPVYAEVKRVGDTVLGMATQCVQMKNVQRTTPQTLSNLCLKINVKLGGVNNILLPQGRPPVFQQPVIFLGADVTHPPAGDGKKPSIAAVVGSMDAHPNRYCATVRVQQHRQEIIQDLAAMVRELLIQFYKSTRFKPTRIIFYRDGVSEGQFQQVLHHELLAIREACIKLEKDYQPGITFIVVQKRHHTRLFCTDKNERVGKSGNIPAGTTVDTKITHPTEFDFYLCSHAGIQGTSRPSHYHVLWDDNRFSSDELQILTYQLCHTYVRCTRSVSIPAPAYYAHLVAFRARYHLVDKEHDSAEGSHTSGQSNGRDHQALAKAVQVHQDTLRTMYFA

Binder | Kd [1] [nM] | also measured
B1 | 14.5 ± 2.9 | –
B2 | 69.2 ± 14.1 | –
B3 | – | Kd [2]: 496 ± 129 nM
B4 | 1.03 ± 0.46 | –
B5 | – | Kd [3]: 2.68 ± 0.3 nM
B6 | 26.9 ± 1.4 | –
B7 | 66.1 ± 11.2 | –
B8 | – | binding result [4]: binds
B9 | 8.92 | –
B10 | – | binding result [5]: binds
B11 | 38.9 | –
B12 | – | binding result [4]: binds
